The values that follow come from the supplement of paper PMC9112550, “Optimization of the antimicrobial peptide Bac7 by deep mutational scanning” (BMC Biology, 2022).
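Further: peptides expressed intracellularly from a pBAD plasmid library in pooled LB shake-flask culture, induced with 0.3% L-arabinose, DNA abundance read by NGS, three biological replicates, DESeq2 with apeglm shrinkage.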

This data set deals with Escherichia coli TOP10. As to the kind of experiment: shrunken log2 fold change of peptide-encoding DNA abundance (4.5 h post-induction vs induction); higher = less antimicrobial activity (less host growth inhibition). As to conditions: time post-induction: 4.5 h; library: site-saturation at positions 5, 18, 19, 20.
Turning to RRIRKRPPRLPRPRPRPFFNPRP, the “shrunken log2 fold change” value is 0.0296.
Consider RRIRVRPPRLPRPRPRPWRNPRP, for which the “shrunken log2 fold change” value is 0.065.
The figure for RRIRSRPPRLPRPRPRPADEPRP is 0.246; for RRIRMRPPRLPRPRPRPIGSPRP it is 0.079.
On to RRIRSRPPRLPRPRPRPMFGPRP, for which the “shrunken log2 fold change” value was -0.325.
For RRIRSRPPRLPRPRPRPEEKPRP, the “shrunken log2 fold change” value stood at 0.206.
For RRIRWRPPRLPRPRPRPNQMPRP the value was -0.0159.
On to RRIRTRPPRLPRPRPRPPRSPRP, for which the “shrunken log2 fold change” value came out at 0.529.
The figure for RRIRRRPPRLPRPRPRPWHSPRP is -0.254.
The figure for RRIRLRPPRLPRPRPRPHFAPRP is -0.0165; for RRIRYRPPRLPRPRPRPCETPRP it is 0.00591.
The figure for RRIRWRPPRLPRPRPRPAMEPRP is 0.348; for RRIRMRPPRLPRPRPRPCGFPRP it is 0.0233.
As to RRIRERPPRLPRPRPRPFPYPRP, the “shrunken log2 fold change” value was -0.256.
For RRIRRRPPRLPRPRPRPIMHPRP the value was -0.094.
For RRIRLRPPRLPRPRPRPSYLPRP the value was -0.659.
Take RRIRHRPPRLPRPRPRPRIVPRP: the “shrunken log2 fold change” value came out at 0.00411.
The figure for RRIRHRPPRLPRPRPRPMQNPRP is -0.0144; for RRIRARPPRLPRPRPRPVHQPRP it is 0.346.
The figure for RRIRMRPPRLPRPRPRPVCLPRP is 0.174.
The figure for RRIRARPPRLPRPRPRPEVWPRP is 1.43; for RRIRERPPRLPRPRPRPNFQPRP it is 0.0442.
Regarding RRIRKRPPRLPRPRPRPLTFPRP, the “shrunken log2 fold change” value is 0.299.
For RRIRKRPPRLPRPRPRPPEAPRP the value was 0.948.
For RRIRDRPPRLPRPRPRPDAIPRP the value was 0.903; for RRIRHRPPRLPRPRPRPKTAPRP, 0.0497.
The figure for RRIRVRPPRLPRPRPRPNTQPRP is -0.0658; for RRIRDRPPRLPRPRPRPASKPRP it is -0.0758; for RRIRVRPPRLPRPRPRPYQPPRP it is -0.509.
Regarding RRIRARPPRLPRPRPRPYQWPRP, the “shrunken log2 fold change” value is -0.0841.
The figure for RRIRTRPPRLPRPRPRPWIPPRP is -0.2; for RRIRNRPPRLPRPRPRPSWAPRP it is -0.249; for RRIRTRPPRLPRPRPRPKLKPRP it is -0.0522.
Turning to RRIRTRPPRLPRPRPRPMIAPRP, the “shrunken log2 fold change” value was determined as 0.000989.
For RRIRQRPPRLPRPRPRPLPNPRP the value was 0.0261.
Take RRIRGRPPRLPRPRPRPATTPRP: the “shrunken log2 fold change” value was found to be 0.871.
For RRIRYRPPRLPRPRPRPQQAPRP the value was -0.0122; for RRIRMRPPRLPRPRPRPERSPRP, 3.22.
In the case of RRIRGRPPRLPRPRPRPFNNPRP, the “shrunken log2 fold change” value was -0.206.
For RRIRDRPPRLPRPRPRPVWMPRP the value was 0.0445.
For RRIRPRPPRLPRPRPRPIVLPRP the value was -0.772; for RRIRMRPPRLPRPRPRPLMDPRP, 1.24.
On to RRIRDRPPRLPRPRPRPYLHPRP, for which the “shrunken log2 fold change” value was -0.119.
The figure for RRIRSRPPRLPRPRPRPRMGPRP is 0.234; for RRIRFRPPRLPRPRPRPFKNPRP it is -0.46; for RRIRRRPPRLPRPRPRPNAPPRP it is 0.675.
The figure for RRIRPRPPRLPRPRPRPAECPRP is -0.223; for RRIRGRPPRLPRPRPRPCKMPRP it is -0.0103.
For RRIRLRPPRLPRPRPRPIWYPRP the value was -0.645.
Regarding RRIRMRPPRLPRPRPRPRYNPRP, the “shrunken log2 fold change” value is -0.151.
Take RRIRRRPPRLPRPRPRPYVRPRP: the “shrunken log2 fold change” value was -0.867.
With RRIRKRPPRLPRPRPRPNHKPRP, the “shrunken log2 fold change” value is -0.203.
As to RRIRPRPPRLPRPRPRPCPVPRP, the “shrunken log2 fold change” value was -0.0845.
The figure for RRIRDRPPRLPRPRPRPADKPRP is -0.0463.
The figure for RRIRMRPPRLPRPRPRPWMVPRP is -0.128; for RRIRWRPPRLPRPRPRPMNHPRP it is -0.426.
The figure for RRIRWRPPRLPRPRPRPLDSPRP is 0.0674; for RRIRFRPPRLPRPRPRPLFGPRP it is 0.0395; for RRIRVRPPRLPRPRPRPWHTPRP it is -0.33.
Turning to RRIRPRPPRLPRPRPRPIETPRP, the “shrunken log2 fold change” value was found to be 0.0267.
RRIRIRPPRLPRPRPRPMQPPRP: the “shrunken log2 fold change” value was -0.0593.
RRIRRRPPRLPRPRPRPNGGPRP: the “shrunken log2 fold change” value came out at 0.171.
The figure for RRIRSRPPRLPRPRPRPYRRPRP is -0.0841.
The figure for RRIRRRPPRLPRPRPRPNSRPRP is -0.0456; for RRIRYRPPRLPRPRPRPHIIPRP it is -0.501; for RRIRKRPPRLPRPRPRPMCPPRP it is 0.199.
For RRIRTRPPRLPRPRPRPVPMPRP the value was -0.299; for RRIRGRPPRLPRPRPRPYDGPRP, -0.387; for RRIRNRPPRLPRPRPRPECWPRP, 0.616.
Regarding RRIRIRPPRLPRPRPRPCATPRP, the “shrunken log2 fold change” value is -0.122.
The figure for RRIRDRPPRLPRPRPRPLISPRP is 0.116.
In the case of RRIRNRPPRLPRPRPRPQPEPRP, the “shrunken log2 fold change” value came to 0.0878.
The figure for RRIRDRPPRLPRPRPRPHHAPRP is 0.00408.
For RRIRDRPPRLPRPRPRPNSSPRP the value was -0.675; for RRIRCRPPRLPRPRPRPRWIPRP, 0.0454.
RRIRWRPPRLPRPRPRPCEHPRP: the “shrunken log2 fold change” value turned out to be 0.0123.
The figure for RRIRLRPPRLPRPRPRPGNRPRP is -1.09; for RRIRYRPPRLPRPRPRPEDLPRP it is -0.00674.
Take RRIRNRPPRLPRPRPRPTDEPRP: the “shrunken log2 fold change” value turned out to be 0.0528.
Consider RRIRERPPRLPRPRPRPGIHPRP, for which the “shrunken log2 fold change” value was -0.502.
The figure for RRIRNRPPRLPRPRPRPAMYPRP is -0.112.
For RRIRQRPPRLPRPRPRPGPNPRP the value was -0.0457.
For RRIRARPPRLPRPRPRPINWPRP the value was 0.139.
Regarding RRIRARPPRLPRPRPRPEKEPRP, the “shrunken log2 fold change” value came out at 0.248.
The figure for RRIRCRPPRLPRPRPRPMVIPRP is -0.373.
As for RRIRRRPPRLPRPRPRPHHPPRP, the “shrunken log2 fold change” value was -0.0853.
For RRIRFRPPRLPRPRPRPFDLPRP the value was -0.352; for RRIRARPPRLPRPRPRPMMWPRP, 0.617; for RRIRVRPPRLPRPRPRPCKCPRP, -0.239.
The figure for RRIRWRPPRLPRPRPRPHQNPRP is -0.00311.
The figure for RRIRRRPPRLPRPRPRPMKVPRP is -0.0467; for RRIRARPPRLPRPRPRPSTKPRP it is 0.076.
On to RRIRMRPPRLPRPRPRPWLRPRP, for which the “shrunken log2 fold change” value was 0.0433.
For RRIRPRPPRLPRPRPRPHVAPRP the value was 0.218; for RRIRWRPPRLPRPRPRPHCRPRP, 0.0889.
In the case of RRIRDRPPRLPRPRPRPQIQPRP, the “shrunken log2 fold change” value is -0.221.
For RRIRERPPRLPRPRPRPVDNPRP the value was -0.107; for RRIRRRPPRLPRPRPRPAFFPRP, 0.58; for RRIRKRPPRLPRPRPRPAQQPRP, 0.344.
RRIRWRPPRLPRPRPRPVDPPRP: the “shrunken log2 fold change” value is 0.158.
The figure for RRIRLRPPRLPRPRPRPDTVPRP is -0.399; for RRIRFRPPRLPRPRPRPMDMPRP it is 0.0169; for RRIRNRPPRLPRPRPRPPRPPRP it is 0.704.
For RRIRCRPPRLPRPRPRPACVPRP the value was 0.211.
The figure for RRIRQRPPRLPRPRPRPKYCPRP is 0.0636; for RRIRARPPRLPRPRPRPEEKPRP it is 1.22; for RRIRHRPPRLPRPRPRPLYFPRP it is -0.816.
For RRIRMRPPRLPRPRPRPEDYPRP, the “shrunken log2 fold change” value is 1.06.
Take RRIRIRPPRLPRPRPRPPMLPRP: the “shrunken log2 fold change” value is -0.382.
The figure for RRIRGRPPRLPRPRPRPWNGPRP is 0.0616; for RRIRLRPPRLPRPRPRPNQQPRP it is 0.0291.
Take RRIRERPPRLPRPRPRPCKLPRP: the “shrunken log2 fold change” value is -0.187.
For RRIRYRPPRLPRPRPRPQYEPRP the value was -0.565; for RRIRKRPPRLPRPRPRPRHCPRP, 0.0472.
The figure for RRIRYRPPRLPRPRPRPQVHPRP is -0.0163.
With RRIRFRPPRLPRPRPRPSTWPRP, the “shrunken log2 fold change” value was -0.000934.
For RRIRARPPRLPRPRPRPWSHPRP the value was -0.186.
The figure for RRIRMRPPRLPRPRPRPMQPPRP is -0.000921; for RRIRWRPPRLPRPRPRPTNHPRP it is -0.245.
The figure for RRIRYRPPRLPRPRPRPGYSPRP is -0.874.
Regarding RRIRRRPPRLPRPRPRPHTDPRP, the “shrunken log2 fold change” value was -0.215.
For RRIRARPPRLPRPRPRPEAQPRP the value was 1.66.
Consider RRIRFRPPRLPRPRPRPFTVPRP, for which the “shrunken log2 fold change” value was -0.246.
For RRIRFRPPRLPRPRPRPSIPPRP the value was -0.602; for RRIRDRPPRLPRPRPRPPYRPRP, 0.0425.
